Measurements reported in US20110124071A1, “METHODS AND COMPOSITIONS FOR PRODUCING HYDROCARBONS” (priority 2009, published 2011).

B1: PMN2A—1863: Prochlorococcus mariunus NATL2A putative decarbonylase (SEQ ID NO: 21) (protein, listed as Prochlorococcus marinus)
chain: MQAFASNNLTVEKEELSSNSLPDFTSESYKDAYSRINAVVIEGEQEAYSNFLDLAKLIPEHADELVRLGKMEKKHMNGFCACGRNLAVKPDMPFAKTFFSKLHNNFLEAFKVGDTTTCLLIQCILIESFAISAYHVYIRVADPFAKRITEGVVQDEYLHLNYGQEWLKANLETVKKDLMRANKENLPLIKSMLDEVSNDAEVLHMDKEELMEEFMIAYQDSLLEIGLDNREIARMALAAVI
B2: Cyan7425—2986: Cyanothece sp. PCC7425 putative decarbonylase (SEQ ID NO: 31) (protein, listed as Cyanothece sp.)
chain: MSDCATNPALDYYSETYRNAYRRVNGIVIEGEKQAYDNFIRLAELLPEYQAELTRLAKMEARHQKSFVACGQNLKVSPDLDFAAQFFAELHQIFASAANAGQVATCLVVQALIIECFAIAAYNTYLPVADEFARKVTASVVQDEYSHLNFGEVWLQNAFEQCKDEIITANRLALPLIWKMLNQVTGELRILGMDKASLVEDFSTRYGEALGQIGFKLSEILSLSVQGLQAVTP
B3: tll1313: Thermosynechococcus elongatus BP-1 putative decarbonylase (SEQ ID NO: 11) (protein, listed as Thermosynechococcus elongatus)
chain: MTTATATPVLDYHSDRYKDAYSRINAIVIEGEQEAHDNYIDLAKLLPQHQEELTRLAKMEARHKKGFEACGRNLSVTPDMEFAKAFFEKLRANFQRALAEGKTATCLLIQALIIESFAIAAYNIYIPMADPFARKITESVVKDEYSHLNFGEIWLKEHFESVKGELEEANRANLPLVWKMLNQVEADAKVLGMEKDALVEDFMIQYSGALENIGFTTREIMKMSVYGLTGA
B4: ATCC51142 cce—0778: Cyanothece sp. ATCC51142 putative decarbonylase (SEQ ID NO: 27) (protein, listed as Cyanothece sp.)
chain: MQELALRSELDFNSETYKDAYSRINAIVIEGEQEAYQNYLDMAQLLPEDEAELIRLSKMENRHKKGFQACGKNLNVTPDMDYAQQFFAELHGNFQKAKAEGKIVTCLLIQSLIIEAFAIAAYNIYIPVADPFARKITEGVVKDEYTHLNFGEVWLKEHFEASKAELEDANKENLPLVWQMLNQVEKDAEVLGMEKEALVEDFMISYGEALSNIGFSTREIMKMSAYGLRAA
B5: Cyan7425—0398: Cyanothece sp. PCC7425 putative decarbonylase (SEQ ID NO: 29) (protein, listed as Cyanothece sp.)
chain: MPQVQSPSAIDFYSETYQDAYSRIDAIVIEGEQEAHDNYLKLTELLPDCQEDLVRLAKMEARHKKGFEACGRNLKVTPDMEFAQQFFADLHNNFQKAAAANKIATCLVIQALIIECFAIAAYNIYIPVADDFARKITENVVKDEYTHLNFGEEWLKANFDSQREEVEAANRENLPIVWRMLNQVETDAHVLGMEKEALVESFMIQYGEALENIGFSTREIMRMSVYGLSAA
B6: PM1231: Prochlorococcus marinus MIT9313 putative decarbonylase (SEQ ID NO: 17) (protein, listed as Prochlorococcus marinus)
chain: MPTLEMPVAAVLDSTVGSSEALPDFTSDRYKDAYSRINAIVIEGEQEAHDNYIAIGTLLPDHVEELKRLAKMEMRHKKGFTACGKNLGVEADMDFAREFFAPLRDNFQTALGQGKTPTCLLIQALLIEAFAISAYHTYIPVSDPFARKITEGVVKDEYTHLNYGEAWLKANLESCREELLEANRENLPLIRRMLDQVAGDAAVLQMDKEDLIEDFLIAYQESLTEIGFNTREITRMAAAALVS

Tested on: E. coli MG1655
Assay: Coexpression of putative decarbonylase with S. elongatus PCC7942 orf1594 in E. coli, GC-MS of extracts
Assay type: cell-based
Conditions: coexpressed with S. elongatus PCC7942 orf1594 in E. coli MG1655, M9 minimal media
Description: After a 1 μl splitless injection (inlet temperature held at 300° C.) onto the GC/MS column, the oven was held at 100° C. for 3 mins. The temperature was ramped up to 320° C. at a rate of 20° C./min. The oven was held at 320° C. for an additional 5 min. The flow rate of the carrier gas helium was 1.3 ml/min. The MS quadrapole scanned from 50 to 550 m/z. Retention times and fragmentation patterns of product peaks were compared with authentic references to confirm peak identity.
The genomic DNA encoding Synechococcus elongatus PCC7942 orf1594 (YP—400611; putative aldehyde-generating enzyme) (SEQ ID NO: 65) was amplified and cloned into the NcoI and EcoRI sites of vector OP-80 (pCL1920 derivative) under the control of the Ptrc promoter. The resulting construct (“OP80-PCC7942—1594”) was transformed into E. coli MG1655 and the cells were grown at 37° C. in M9 minimal media with 1% (w/v) glucose as carbon source and supplemented with 100 μg/ml spectinomycin. When the culture reached OD600 of 0.8-1.0, it was induced with 1 mM IPTG and cells were grown for an additional 18-20 h at 37° C. Cells from 0.5 ml of culture were extracted with 0.5 ml of ethyl acetate. After sonication for 60 min, the sample was centrifuged at 15,000 rpm for 5 min. The solvent layer was analyzed by GC-MS as described in Example 1.
The genomic DNA encoding Synechococcus elongatus PCC7942 orf1593 (YP—400610; putative decarbonylase) (SEQ ID NO: 1) was amplified and cloned into the NdeI and XhoI sites of vector OP-183 (pACYC derivative) under the control of the Ptrc promoter. The resulting construct was cotransformed with OP80-PCC7942—1594 into E. coli MG1655 and the cells were grown at 37° C. in M9 minimal media supplemented with 100 μg/ml spectinomycin and 100 μg/ml carbenicillin. The cells were cultured and extracted as in Example 3 and analyzed by GC-MS as described in Example 1. […]

Molecule	fatty aldehyde decarbonylase activity (alkane/alkene production)
PCC7942—1593: Synechococcus elongatus PCC7942 orf1593 putative decarbonylase (SEQ ID NO: 1)	active fatty aldehyde decarbonylase
B1	active fatty aldehyde decarbonylase
B2	active fatty aldehyde decarbonylase
B3	active fatty aldehyde decarbonylase
B4	active fatty aldehyde decarbonylase
B5	active fatty aldehyde decarbonylase
B6	active fatty aldehyde decarbonylase
